This note sets out measurements from doi:10.1101/099705.

The target in assay [1] is TbMP42-OB (T. brucei (strain Lister 427)). Description: SEC.
Assay [2] addresses TbMP81-OB (T. brucei (strain Lister 427)). Description: SEC. (Size exclusion chromatography separates by hydrodynamic size, large species first.)
The target in assay [3] is TbMP24-OB (T. brucei (strain Lister 427)). Briefly: SEC.
Assay [4] has as its target TbMP18-FL (T. brucei (strain Lister 427)). Briefly: SEC.
Assay [5] deals with TbMP81-FL (T. brucei (strain Lister 427)). Briefly: SEC.
Assay [6] deals with TbMP42-FL (T. brucei (strain Lister 427)). Description: SEC.
The target in assay [7] is TbMP18-FL (T. brucei (strain Lister 427)).
The target is the same in assay [8]. Description: SEC. This is another data set of the same source.

“And” between values parts separate entries of the source, which are not always exact repeats. Identical values can stand only once. Like-named read-outs stand apart in the source and are kept apart here.

As to TbMP42-OB (domain or fragment), the stoichiometry N (as a rule, a count of units in the complex or per binding partner) in assay [1] is 3.
In assay [2], TbMP81-OB (domain or fragment) registered a stoichiometry N of 2.
Consider TbMP24-OB (domain or fragment), for which the stoichiometry N in assay [3] came to 3. Further, the stoichiometry N (TbMP24-OB:TbMP18-FL (molar ratio)) in assay [4] was found to be 2.
As to TbMP81-FL (natural protein), in assay [5], the stoichiometry N is 2.
In the case of TbMP42-FL (natural protein), the stoichiometry N in assay [6] is 3.
TbMP18-FL (natural protein): in assay [4], the stoichiometry N was determined as 4.
TbMP24-FL (natural protein): the stoichiometry N (TbMP24-FL:TbMP18-FL (molar ratio)) in assay [7] was 1.1; in assay [4], 2 and 1.5.

B1: TbMP63-OB (domain or fragment)
chain: SAIGASWAETELIPHAQCVSNITIVGRVLDVSQASENVSHVTVFVEGERSGEEETLTLCCFGEVSQKIRGTLKRNATIFASGTLRLHPVYEASNNKYYVSPVVHVSMPTGTLAVIT
For the molecule B1, the stoichiometry N (TbMP63-OB:TbMP18-FL (molar ratio)) in assay [7] was 0.67; in assay [8], 1 and 1.5.
